Assay results from the supplement of paper PMC9732359.
± gives the uncertainty stated by the source.

Assay: protein stability index of a GFP-peptide fusion (yeast GPS) (PSI 1-4); higher = more stable; sorted into four equal gates, so the index is relative within each strain
Outline: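 Plasmids isolated from each sorting gate were PCR-amplified and Illumina-sequenced, and barcodes assigned the reads to strains. The gates, four of equal size, were set by GFP/Cherry fluorescence ratio on mid-log cultures in leucine-free medium. These cultures were yeast carrying a pooled library of tiled 17-residue yeast protein peptides fused downstream of GFP on a plasmid that also expresses Cherry. The protein stability index is the sum of every gate's read frequency times its gate number.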

| Sequence | protein stability index (doa10∆) | protein stability index (pdr5∆) | protein stability index (san1∆) | protein stability index (ubr1∆) |
| --- | --- | --- | --- | --- |
| DQLEDLREHFKNTEEGK [QCR6] | 2.75 ± 0.27 | 3.51 ± 0.14 | 3.36 ± 0.072 |  |
| DQLSTISMILRNISFSD [SWI1] | 1.85 ± 0.052 | 2.44 ± 0.072 | 2.04 ± 0.069 | 2.31 ± 0.051 |
| DQWYCIDKLEDLSRIMD [ITC1] | 2.65 ± 0.26 | 2.64 ± 0.22 |  |  |
| DRDALSGWGAVVYIIKK [PUP3] | 3.12 ± 0.081 | 2.96 ± 0.063 | 2.99 ± 0.06 | 3.13 ± 0.056 |
| DRINYTETALMNLKKEL [SRB5] | 3.14 ± 0.14 | 3.28 ± 0.16 | 3.41 ± 0.088 | 3.18 ± 0.095 |
| DRMAKYLHIRDKILQLN [PGD1] | 2.32 ± 0.12 | 2.01 ± 0.079 | 1.76 ± 0.099 | 1.77 ± 0.049 |
| DRSASRAVFLFRCKETH [RPC82] | 1.77 ± 0.084 | 3.07 ± 0.15 |  | 3.02 ± 0.17 |
| DSEKRNKYAAMLTSENA [RRP45] | 2.97 ± 0.068 | 3.02 ± 0.063 | 3.14 ± 0.067 | 2.92 ± 0.04 |
| DSGRGAPLAKVVFRDPY [RPL2A] | 3.06 ± 0.12 | 2.83 ± 0.13 | 3.03 ± 0.072 | 3.01 ± 0.067 |
| DSIIDNIVKLCFVHRYK [IRR1] | 2.57 ± 0.11 | 1.95 ± 0.042 | 1.99 ± 0.11 | 2.08 ± 0.035 |
| DSLIQLANRSKENFILD [YJL039C/NUP192] |  |  | 3.23 ± 0.14 | 3.13 ± 0.11 |
| DSRKNREQSSNDSETHT [BRN1] | 3.68 ± 0.17 | 3.34 ± 0.19 | 3.34 ± 0.11 | 3.52 ± 0.14 |
| DSSSNTYRSRAQQVPPY [SIN4] | 2.89 ± 0.097 | 2.88 ± 0.17 | 3.15 ± 0.062 | 1.61 ± 0.11 |
| DSTAVALEEGLNEEAVI [YJL039C/NUP192] | 3.08 ± 0.084 | 3.12 ± 0.04 | 2.68 ± 0.058 | 2.98 ± 0.05 |
| DSTSHNNGSSDKSLDSS [MED1] | 3.04 ± 0.062 | 3.11 ± 0.067 | 3.08 ± 0.07 | 3.08 ± 0.046 |
| DSVTTETGKLLSGLAQR [BRN1] | 2.5 ± 0.12 | 2.87 ± 0.099 | 2.66 ± 0.15 | 2.66 ± 0.072 |
| DSYLDADKELSFEINVK [BRR2] | 2.83 ± 0.051 | 3.03 ± 0.041 | 3.08 ± 0.032 | 2.88 ± 0.034 |
| DTADEAKTLIPSLNNKI [RPB4] | 2.95 ± 0.075 | 3.15 ± 0.078 | 3.1 ± 0.063 | 3.1 ± 0.078 |
| DTAPKPNIVEIDLDNDE [DLS1] | 3.27 ± 0.082 | 3.4 ± 0.058 | 3.03 ± 0.079 | 3.27 ± 0.091 |
| DTAVKTAETGYIQRRLV [RPO21] | 1.75 ± 0.053 | 2.5 ± 0.069 | 1.98 ± 0.12 | 2.13 ± 0.058 |
| DTFGEGIIITDQSNVQY [BRR2] | 3.11 ± 0.17 | 3.21 ± 0.13 | 2.79 ± 0.1 | 2.94 ± 0.093 |
| DTFYMNVESVGSIPVDQ [RPB3] | 2.9 ± 0.075 | 2.43 ± 0.056 | 2.67 ± 0.078 | 2.2 ± 0.12 |
| DTICQSIQEQIQEFQGN [SNF5] | 3.27 ± 0.073 | 3.44 ± 0.1 | 3.36 ± 0.076 | 3.6 ± 0.075 |
| DTKNLYVIKALQSLTSK [RPS10A] | 1.75 ± 0.077 | 1.95 ± 0.077 | 1.3 ± 0.16 | 1.34 ± 0.078 |
| DTKNSKSESPSEVLVDT [ISW2] | 3.11 ± 0.082 | 3.12 ± 0.07 | 2.97 ± 0.082 | 3.27 ± 0.063 |

| Sequence | protein stability index (doa10∆) | protein stability index (pdr5∆) | protein stability index (san1∆) | protein stability index (ubr1∆) |
| --- | --- | --- | --- | --- |
| DTLKDISTSFCFICLLH [BRN1] | 2.01 ± 0.081 | 2.44 ± 0.072 | 2.27 ± 0.14 | 1.95 ± 0.083 |
| DTRSTQGPIVADKNCAK [PUP1] | 3.13 ± 0.11 | 3.59 ± 0.12 | 3.15 ± 0.1 | 3.04 ± 0.086 |
| DTTVPKRLGPKRANNIR [RPS6A] | 3.46 ± 0.11 | 3.68 ± 0.11 | 3.19 ± 0.051 | 3.37 ± 0.063 |
| DTVIIFDTDWNPHQDLQ [SNF2] | 2.93 ± 0.064 | 3.1 ± 0.05 | 3.02 ± 0.033 | 2.84 ± 0.044 |
| DVDPIELVVFLPALCKK [RPL8A] | 2.78 ± 0.092 | 2.8 ± 0.089 | 2.64 ± 0.13 | 3.03 ± 0.057 |
| DVIATEPQGAVTHMDQI [SMD3] | 3.03 ± 0.073 | 2.83 ± 0.084 | 2.28 ± 0.11 | 2.47 ± 0.088 |
| DVLINELLDQVTLGREG [CDC53] | 3.06 ± 0.078 | 3.1 ± 0.073 | 3.06 ± 0.08 | 3.17 ± 0.066 |
| DVQKSSDSSSEDEVKVE [YLR335W/NUP2] | 2.7 ± 0.098 | 2.87 ± 0.092 | 2.69 ± 0.099 | 2.31 ± 0.044 |
| DVQLERVADEDANLNDL [IRR1] | 2.89 ± 0.17 |  |  |  |
| DVSPLRRVNQAIALLTI [RPS5] | 2.07 ± 0.065 | 2.05 ± 0.077 | 1.85 ± 0.15 | 1.47 ± 0.055 |
| DVVTREYTINLHKRLHG [RPL31A] | 2.62 ± 0.12 | 2.55 ± 0.09 | 2.66 ± 0.069 | 1.71 ± 0.067 |
| DWEKYKAPLEDDDKKPD [RPT1] | 3.16 ± 0.12 | 3.56 ± 0.19 | 2.96 ± 0.21 | 3.31 ± 0.16 |
| DWQMMTSPVTGATEKRK [CSL4] | 2.44 ± 0.07 | 2.03 ± 0.11 | 2.3 ± 0.12 | 1.52 ± 0.062 |
| DWVRFLALALGILYMGQ [RPN1] | 1.36 ± 0.096 | 1.45 ± 0.086 | 2.08 ± 0.14 | 1.24 ± 0.18 |
| DYAQLDHLVSSIPMGGQ [ARP9] | 2.1 ± 0.065 | 2.36 ± 0.071 | 2.36 ± 0.067 | 2.15 ± 0.053 |
| DYIKDEQRHLKRELKRA [RPT3] | 2.25 ± 0.058 | 2.06 ± 0.056 | 1.98 ± 0.14 | 1.68 ± 0.037 |
| DYLFHLLISLNILFSLW [YLR018C/POM34] | 1.61 ± 0.041 | 1.34 ± 0.036 | 1.17 ± 0.072 | 1.21 ± 0.03 |
| DYNFKYGIPLEFYNEMH [PRP8] | 2.98 ± 0.08 | 3.08 ± 0.091 | 1.78 ± 0.082 | 3.15 ± 0.083 |
| DYYQSIYAKYGAKGSTL [FAS2] | 2.85 ± 0.094 | 2.79 ± 0.07 | 2.71 ± 0.067 | 3.13 ± 0.076 |
| EAAAVRDLSEASVYPEY [RPS26A] | 2.25 ± 0.076 | 2.53 ± 0.082 | 2.65 ± 0.076 | 2.93 ± 0.09 |
| EAASITRKSLNNAVRFS [ECM29] | 2.59 ± 0.081 | 2.88 ± 0.084 | 2.86 ± 0.055 | 2.97 ± 0.048 |
| EAKDAIIELENINAKME [YIL149C/MLP2] | 3.06 ± 0.091 | 3.12 ± 0.099 | 3.02 ± 0.08 | 2.84 ± 0.088 |
| EALAFTSLVANENDKIY [YDL116W/NUP84] | 1.85 ± 0.06 | 2.4 ± 0.052 | 2.02 ± 0.12 | 2.93 ± 0.062 |
| EALLRSLLDAEEERRKK [SNF2] | 2.87 ± 0.15 | 2.62 ± 0.094 | 2.27 ± 0.17 |  |
| EAQANLLTAKHGMTLRE [RPO21] | 2.98 ± 0.18 | 3.11 ± 0.099 | 3.14 ± 0.063 | 2.8 ± 0.11 |
